Experiment [1] has as its target hCMV gH (HEK293T transfectant) (hCMV), P12824. The experiment can be described thus: cell competition; competitor 3G16-biotin. The following applies: remark: other sources report otherwise.
Experiment [2] shares this target. The experiment can be described thus: cell competition; competitor 13H11-biotin. The following applies: remark: other sources report otherwise.
Experiment [3] shares this target. The experiment can be described thus: cell competition; competitor 11B12-biotin. The conditions noted are these: remark: other sources report otherwise.
In another experiment the target is gB 69-78 peptide (hCMV) (UniProt P06473). Put plainly: ELISA, gB 69-78 peptide.

B1: 11B12 (antibody, V domains shown)
VH: QMQLVQSGPQVKKPGTSVKVSCKASGFTFTSSAMQWVRQARGQRPEWIGWIVLGSGNTNYAQKFQERVTLTRDMSTATAYMELSSLRSEDTAVYYCAADRGRGGYNVYTYWGQGTLVAVSS
VL: EIVMTQSPGTLSLSPGERATLSCRASQTISNTYVAWYQQKPGQAPRLLIYGASSRATGIPDRFSGSGSGTDFTLTIRRLEPEDFAVYYCQQNGQSPWTFGQGTNVEIK
Turning to B1, the Inhibition of binding (%) in experiment [1] worked out at 0%; in experiment [2] it was 100%; in experiment [3], 100%.

B2: 3G16 (antibody, V domains shown)
VH: RAQLVQSAAEMKNPGASVKVSCEASGYTFTGYYVHWMRQAPGQGLEWMGWINPMTGATKSPQKFQGRVTMTRDTSTTATHIELTRLRSDDSAVFFCARGGPTSTRITGKRHFDLWGRGTLITVAS
VL: QSALTQPASVSGSPGESITISCTGTISDVGAYNSVSWYQQHSGTAPELIIYDVTNRPAGVSSRFSGSKSGNTASLTISWLQSEDEAEYYCSSYTTSDTYVFGSGTQVTVL
With B2, the Inhibition of binding (%) in experiment [1] turned out to be 100%; in experiment [2], 0%; in experiment [3], 0%.

B3: 6B4 (antibody, V domains shown)
VH: QVQLVESGGGVVQPGRSLRLSCAASGFRFNEFNMHWVRQAPGKGLEWVAVISIDGRHKYNADSVEGRFTISRDNSRNTLYLQMNSLRVEDTALYYCVTDGKAVDGFSGILEFWGQGTPVTVST
VL: EIVLTQSPATLSLSPGERATLSCWASQSVGGYLAWYQQKPGQAPRLLIYDASIRATGIPARFSGSGSGTHFTLTINSLEPEDFAVYYCQQRNNWPPLTFGGGTKVEIK
In the case of B3, in the experiment with gB 69-78 peptide (hCMV), the EC50 stood at 0.044 µg/mL.

B4: 13H11 (antibody, V domains shown)
VH: QVQLVQSGAEVKKPGASVKVSCKASGYTFTNYYIHWVRQAPGQGLEWMGIIHPSSGGTSYAQKFQGRVTMTRDTSTSTVSMDLSSLRSEDTAVYYCGRAFRILGLSDVFVNDWGQGTVVTVSS
VL: DIQMTQSPSSLSASVGDRVTITCRASQGINNYLAWYQQKPGKVPKLLIYAASTLQSGVPSRFSGSGSGTAFTLTILSLQPEDVATYYCQKYNSAPFTFGPGTKVDIK
Regarding B4, the values for the Inhibition of binding (%) in experiment [1], in experiment [2] and in experiment [3] were 0%, 100% and 100%, respectively.

Values taken from US20170296650A1.
